Source: doi:10.1101/2020.01.02.892901
Where “and” joins values, the source holds several entries; their conditions need not be identical. Equal entries are not always repeated.

Target: MET pY1313 phosphopeptide (human)
Experiment: fluorescence polarisation

FGR SH2 domain (from UniProt P09769 144-241) (domain or fragment)
Kd: 3 µM and 12 µM
